In assay [1] the target is Maltose Binding Protein (MBP) (E. coli) [MBP: P0AEX9]. The assay is described as follows: ELISA control without serum, antigen MBP.
Assay [2] has as its target MBP-ABL (E. coli) [MBP: P0AEX9]. Briefly: ELISA control without serum, antigen MBP-ABL. Background: An ELISA detects its analyte on a solid surface through an enzyme-linked reagent.
For assay [3], the target named is 38C13 IgM Id. The assay is described as follows: ELISA control without serum, antigen 38C13 IgM Id.

The results in this text go back to US20080107662A1.

Secondary Ab only (antibody): the ELISA reading is 0.055 in assay [1], 0.052 in assay [2] and 0.09 in assay [3].
